Earlier results as cited in publication PMC8693730.
Where two headings read alike, the source gives them in different places.

Assays:
RAP74 (Homo sapiens) [1] = target: RAP74 (Homo sapiens) (UniProt P35269)
RAP74 (Homo sapiens) [2] = target: RAP74 (Homo sapiens) (UniProt P35269); remark: listed apart in the source

UniProt P35269, sequence (P35269 2-517): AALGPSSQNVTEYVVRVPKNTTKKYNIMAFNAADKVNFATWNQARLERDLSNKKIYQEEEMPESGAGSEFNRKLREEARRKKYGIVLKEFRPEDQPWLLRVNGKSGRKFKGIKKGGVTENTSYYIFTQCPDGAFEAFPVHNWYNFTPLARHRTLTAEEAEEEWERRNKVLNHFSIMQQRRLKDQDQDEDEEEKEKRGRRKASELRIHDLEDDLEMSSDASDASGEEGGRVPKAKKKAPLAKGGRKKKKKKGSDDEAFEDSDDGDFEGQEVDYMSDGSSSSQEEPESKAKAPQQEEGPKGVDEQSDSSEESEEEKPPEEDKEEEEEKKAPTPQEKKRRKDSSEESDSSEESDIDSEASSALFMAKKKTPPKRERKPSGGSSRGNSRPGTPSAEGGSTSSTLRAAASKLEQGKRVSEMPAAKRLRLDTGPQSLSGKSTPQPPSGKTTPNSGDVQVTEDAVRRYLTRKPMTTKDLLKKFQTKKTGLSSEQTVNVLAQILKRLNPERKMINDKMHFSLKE

androgen receptor NTD (from UniProt P10275)
Kd (RAP74 (Homo sapiens) [1]): 1750 µM | Kd (RAP74 (Homo sapiens) [2]): 702 µM
